Data published in paper PMC8472270.

Tests used:
[1] = molecular target: Exendin-4 (Heloderma suspectum) (UniProt P26349); assay: static and dynamic light scattering (SLS/DLS); peptide concentration series in PBS, pH 7.4, 23 °C; scattering angle 90°; relative molecular mass and Stokes radius; monomer to oligomer
Exendin-4_F22R [2] = assay: concentration-dependent relative molecular mass of self-association (method not named in legend); details: parent: est. 3.2; read off a plot
Exendin-4_F22R [3] = assay: concentration-dependent Stokes radius of self-association (method not named in legend); details: parent: est. 2.3; read off a plot

Substance “Exendin-4 (from UniProt P26349 48-87) (peptide)” has a stoichiometry N [1] of 3.

Exendin-4 (from UniProt P26349) F22R gave an other: relative molecular mass Mrel (Exendin-4_F22R [2]) of 0.95 and an other: Stokes radius RS (Exendin-4_F22R [3]) of 1.6 nm.
